Data as given in patent publication US12528870B2, “Anti-c-Met antibody-drug conjugate and applications thereof” (REMEGEN CO., LTD., priority 2020, dated 2026).
Like-named read-outs stand apart in the source and are kept apart here.

Columns and labels:
c-Met protein = c-Met protein (Homo sapiens, UniProt P08581); assay: ELISA binding ability to c-Met antigen; details: c-Met protein coated at 2 μg/ml
Experimental: The c-Met protein was prepared with a diluent to a final concentration of 2 μg/ml, and added to a microplate at 100 μl per well, overnight at 4° C. The solution in the well was discarded, and the plate was washed three times with PBST. The plate was added with a blocking solution at 300 μl/well and incubated at 37° C. for 2 h. The solution in the well was discarded, and the plate was washed three times with PBST. AAJ8D6 antibody and ABT-700 (i.e., telisotuzumab, its sequence information can be found at https://extranet.who.int/soinn/mod/page/view.php?id=137&inn n=10366, the same below) were diluted to 9 concentrations, added to the 96-well plate and incubated for 2 h. The solution in the well was discarded, and the plate was washed three times with PBST. HRP detection antibody was prepared by adding diluent at a dilution of 1:5000, added at 100 μl per well, and incubated at 37° C. for 1 h. The solution in the well was discarded, and the plate was washed three times with PB ST. The plate was added with TMB color developing solution, incubated at room temperature for 2 min, and then added with Elisa stop solution.

[1] = system: advanced solid tumors / NSCLC; details: cited from earlier work
c-Met-positive NSCLC = details: cited from earlier work
[2] = combined administration group (with erlotinib)
[3] = single administration cohort, c-Met-positive NSCLC

Sequence of c-Met protein (P08581 25-1390): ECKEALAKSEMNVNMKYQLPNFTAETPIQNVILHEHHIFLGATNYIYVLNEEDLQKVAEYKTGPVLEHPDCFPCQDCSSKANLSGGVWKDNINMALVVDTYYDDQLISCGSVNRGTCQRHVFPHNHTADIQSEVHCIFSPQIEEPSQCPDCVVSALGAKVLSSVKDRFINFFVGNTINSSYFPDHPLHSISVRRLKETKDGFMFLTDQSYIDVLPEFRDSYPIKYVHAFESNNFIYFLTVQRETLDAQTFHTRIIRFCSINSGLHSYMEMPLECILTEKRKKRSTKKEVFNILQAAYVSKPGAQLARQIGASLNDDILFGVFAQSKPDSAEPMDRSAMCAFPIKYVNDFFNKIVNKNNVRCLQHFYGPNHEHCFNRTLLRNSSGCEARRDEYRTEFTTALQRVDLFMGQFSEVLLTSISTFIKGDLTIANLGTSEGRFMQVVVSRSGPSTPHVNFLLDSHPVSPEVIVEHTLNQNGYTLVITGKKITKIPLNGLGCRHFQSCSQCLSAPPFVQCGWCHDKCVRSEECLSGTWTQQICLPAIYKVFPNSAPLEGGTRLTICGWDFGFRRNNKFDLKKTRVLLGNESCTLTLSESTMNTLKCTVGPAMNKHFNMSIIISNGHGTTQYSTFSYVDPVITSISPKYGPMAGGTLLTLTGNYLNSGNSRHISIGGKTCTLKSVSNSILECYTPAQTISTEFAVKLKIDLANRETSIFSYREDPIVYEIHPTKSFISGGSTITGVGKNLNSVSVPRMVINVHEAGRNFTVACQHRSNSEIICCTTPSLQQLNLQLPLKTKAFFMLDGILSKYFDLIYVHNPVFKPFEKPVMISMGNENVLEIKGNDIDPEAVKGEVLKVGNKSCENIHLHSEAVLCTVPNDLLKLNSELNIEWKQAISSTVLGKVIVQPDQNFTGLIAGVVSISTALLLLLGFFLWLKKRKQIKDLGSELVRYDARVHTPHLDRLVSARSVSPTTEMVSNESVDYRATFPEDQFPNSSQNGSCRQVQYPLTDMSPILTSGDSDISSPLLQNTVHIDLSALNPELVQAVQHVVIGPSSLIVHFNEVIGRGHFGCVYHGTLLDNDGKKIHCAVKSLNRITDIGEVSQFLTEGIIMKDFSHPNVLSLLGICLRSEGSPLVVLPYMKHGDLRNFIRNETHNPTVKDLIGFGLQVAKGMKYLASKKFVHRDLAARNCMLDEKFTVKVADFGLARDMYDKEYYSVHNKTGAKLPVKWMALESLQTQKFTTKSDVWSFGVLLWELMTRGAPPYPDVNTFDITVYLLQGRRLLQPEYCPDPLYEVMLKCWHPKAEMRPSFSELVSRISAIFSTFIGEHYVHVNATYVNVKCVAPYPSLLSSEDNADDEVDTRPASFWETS

Row | Substance | EC50 (c-Met protein) | patients who experienced partial remission ([1]; NSCLC patients with H-score ≥150) | tolerated dose ([1]; every three weeks) | most frequently occurring toxicity: decreased appetite ([1]; in vivo) | most frequently occurring toxicity: diarrhea ([1]; in vivo) | most frequently occurring toxicity: vomiting ([1]; in vivo) | dose at which well tolerated (c-Met-positive NSCLC; NSCLC patients) | patients with partial remission (c-Met-positive NSCLC; combined administration group (with erlotinib), 1 remains to be confirmed) | patients under control (c-Met-positive NSCLC; combined administration group (with erlotinib), after 12 weeks of treatment) | adverse reaction: nausea, patients (c-Met-positive NSCLC; [2]) | adverse reaction: neuralgia, patients (c-Met-positive NSCLC; [2]) | adverse reaction: fatigue, patients (c-Met-positive NSCLC; [3]) | adverse reaction: nausea (first listed), patients (c-Met-positive NSCLC; [3]) | adverse reaction: nausea (listed a second time), patients (c-Met-positive NSCLC; [3]) | treatment-related deaths (c-Met-positive NSCLC; single administration group and combined administration group) | patients under control (c-Met-positive NSCLC; single administration group, after 12 weeks of administration) | patients who experienced partial remission (c-Met-positive NSCLC; single administration group)
1 | ABT-700: competitor anti-c-Met antibody, i.e. telisotuzumab | 1.33 ng/mL |  |  |  |  |  |  |  |  |  |  |  |  |  |  |  | 
2 | ABBV-399 |  | about 19% | 2.7 mg/kg | 13% | 10% | 13% | 2.7 mg/kg | 4/13 | 76.9% | 23.1% | 46.2% | 43.8% | 37.5% | 18.8% | no treatment-related deaths | 56.3% | 3/16
